Among the data in article PMC12118636 are Kd values, retold here.

Like-named read-outs stand apart in the source and are kept apart here.

As usually defined, the Kd is the equilibrium constant for the complex coming apart. A lower Kd goes with higher affinity.

Assay [1] addresses hNaV1.9 IQ domain peptide (human). Put plainly: ITC. For orientation: Isothermal titration calorimetry measures the heat released or taken up as one component is titrated into another.
Assay [2] shares this target. Put plainly: ITC. This is another data set of the same source.

On to “Human calmodulin (from UniProt P0DP23 1-149) (natural protein)”, for which the Kd stood at 480 µM in assay [1] and 37 µM in assay [2].
